The text below walks through data of the nanobody polyreactivity screen of Harvey et al. (2022).

A short description of the data set: yeast display, Sf9 membrane polyspecificity reagent, FACS + sequencing; frameworks hold sequencing errors. Put shortly:
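Galactose induction of a Saccharomyces cerevisiae BJ5465 synthetic nanobody display library ran 36–48 hours. The cells were then stained for 1 hour at 4 °C with 10% biotinylated, detergent-solubilized Sf9 membrane reagent, pulled down on streptavidin microbeads and FACS-sorted into low and high (top ~1%) gates on expression and reagent-binding fluorescence. Labels for polyreactivity follow the gate of origin.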
For “QVQLVESGGGLVQAGGRLRLSSAASRIIFRDNDMGWYRQAPGKERELVASISDSGGSTYYADSVKGRFTISRDNAKNTVYLQKNSLKSEATAVYYCAAPYLSLYLYDYWGQGTQVTVSS”, the “polyreactivity (PSR sort gate)” value is recorded as “low polyreactivity”.

For the sequence “QVQLVESGGGLVQAGGRLRLSSADYGITIELYVMGWYRQAPGKERELVAAINRGTSTYYADSVKGRFTISRDNAKNTVYLQMNSLKPEDTAVYYCAAESGVVALYRYDYWGQGTQVTVSS”, the “polyreactivity (PSR sort gate)” value was “low polyreactivity”.

In the case of “QVQLVESGGGLVQAGGRLRLTCAASASIFHYNSMGWYRQATGKQRELVAAITSGGSTYADSVKGRFTISRDNAKNTVYLQMNSLKPEDTAVYYCNADSVGPRGDLGYWGQGTQVTVSS”, the “polyreactivity (PSR sort gate)” value is listed as “low polyreactivity”.

On to “QVQLVESGGGLVQAGGRLRLTCAASGRIFVIYAMRWYRQAPGKERELVAGITRGDRTYADSVKARFTISRDNAKNTVYLQMNSLKPEDTAVYYCNADTGYRFDYWGQGTQVTVSS”, for which the “polyreactivity (PSR sort gate)” value was “high polyreactivity”.

On to “QVQLVESGGGLVQAGGRLSLSCAASGFIFDYYSMGWYRQAPGKERELVAAISWSGGSTYYADSVKGRFTISRDNAKNTVYLQMNSLKPEDTAVYYCNTYYQGYWGDFDYWGQGTQVTVSS”, for which the “polyreactivity (PSR sort gate)” value is reported as “high polyreactivity”.

Consider “QVQLVESGGGLVQAGGSFRLSCAASGGTVDTYVMGWYRQAPGKERELVAVITRGASTYYADSVKGRFTISRDNAKNTVYLQMNSLKPEDTAVYYCAAACYSPDYYRFWYSFDYWGQGTQVTVSS”, for which the “polyreactivity (PSR sort gate)” value is listed as “low polyreactivity”.

Consider “QVQLVESGGGLVQAGGSFRLSCAASGLISTTYAMGWYRQAPGKERELVAAINVSGGSTYYADSVKGRFTISRDHAKNTVYLQMNSLKPEDTAVYYCAARHDKRRQYYVGQSAFDYWGQGTQVTVSS”, for which the “polyreactivity (PSR sort gate)” value is reported as “low polyreactivity”.

Turning to “QVQLVESGGGLVQAGGSHRFSCAASGRIFYGHVMGWYRQAPGKERELVADISYDGGSTYYADSVKGRFTISRDNAKKTVYLQMNSLNPEDTAVYYGATRFVYRYTFWYYSTEYNYCGQGTQVTVSS”, the “polyreactivity (PSR sort gate)” value is given as “low polyreactivity”.

“QVQLVESGGGLVQAGGSHRISCAASGFIFPYYAMGWYRQAPGKERELVAAITSGGSTNYADSVKGRFTISRDNAKNTVYLQMTSLKPEDTAVYYCDKRLKRWSVYCRYDYWGQGTQVTVSS”: the “polyreactivity (PSR sort gate)” value is recorded as “high polyreactivity”.

With “QVQLVESGGGLVQAGGSHRLSCAACGYIFFYNAMGWYRQAPGKERELVASITYRGGSTYYADSVKGRFTISRDNAKNSVYLQMNSLKPEDTAVYYCNVDGGGPLGPQGFPFDYWGQGTQVTVSS”, the “polyreactivity (PSR sort gate)” value is given as “low polyreactivity”.

For “QVQLVESGGGLVQAGGSHRLSCAASGFTFNKYAMGWYRQAPRKERELVAAISSSGGRTSYADSVKGRFTISRDNAKNTVYLQMNSVKPEDTAVYYCNKVSTADMGYWGQGTQVTVSS”, the “polyreactivity (PSR sort gate)” value was “high polyreactivity”.

Turning to “QVQLVESGGGLVQAGGSHRLSCAASGFTIVQYAMGWYRQAPGKERELVARISRNGGSTYYADSVKGRFTISRDNAKNTVYLQMNSLKPEDTAVYYCNALRGPVKYYSWGQGTQVTVSS”, the “polyreactivity (PSR sort gate)” value is recorded as “low polyreactivity”.

“QVQLVESGGGLVQAGGSHRLSCAASGGIAGNTMGWYRQAPGKERELVAAITRSGGRTYYADSVKGRFTISRDNAKNTVYLQMNSLKPEDTAVYYCAVTGLVRRRYGYWGQGTQVTVSS”: the “polyreactivity (PSR sort gate)” value was “high polyreactivity”.

“QVQLVESGGGLVQAGGSHRLSCAASGGTYITNAMGWYRQAPGKERELVAAITSGGRTTYADSVKGRFTISRDNAKNTVYLQMNSLKPEDTAVYYCAADHVYSYTYNFDYWGQGTLVTVSS”: the “polyreactivity (PSR sort gate)” value is recorded as “low polyreactivity”.

Consider “QVQLVESGGGLVQAGGSHRLSCAASGITFARYAIGWSRQAPGKEREFLAAISWSGGNTYYADSVKGRFTISRDYAKNTVYLQLNSLKTEDTAVYYCAAESKGSWRYYYRFYYWGQGTQVTVSS”, for which the “polyreactivity (PSR sort gate)” value is on record as “high polyreactivity”.

With “QVQLVESGGGLVQAGGSHRLSCAASGLIFNYYAMGGYRQAPGKERELVASITGGDSTNYADSVKGRFTISRDNAKNTVYLQMNSLKPEDTAVYYCAAEFYGSSYGYRTYDYYYWGQGTQVTVSS”, the “polyreactivity (PSR sort gate)” value was “low polyreactivity”.

For “QVQLVESGGGLVQAGGSHRLSCAASGLTFVDNAMGWYRQAPGKDRELVAANSYNGGSTYYADSVKGRFTISRDNAKNTVYLQLHRLKPEDTAVYYCAADISVGRYGDMDDWGQGTQVTVSS”, the “polyreactivity (PSR sort gate)” value is “low polyreactivity”.

Consider “QVQLVESGGGLVQAGGSHRLSCAASGRIFFPYDMGWYRQAPGKDRELVAAITNSGGRTYYADSVKGRFTISRDNAKNTVYLQMNSLKPEDSAVYYCAAEYVSAKWEYGYWGQGTQVTVSS”, for which the “polyreactivity (PSR sort gate)” value is “low polyreactivity”.

Turning to “QVQLVESGGGLVQAGGSHRLSCAASGRIFKIYAMGWYRQAPGKERELVAAISRGGRTYYADSVKGRFTISRDNAMYTFYLLLNSLTPEDTAVYYCNLYAPDTYGINGYWGQGTQVSVSS”, the “polyreactivity (PSR sort gate)” value is on record as “high polyreactivity”.

As for “QVQLVESGGGLVQAGGSHRLSCAASGRIFRSYAMGWYRQAPGKERELVAAISDRGGSTYYADSVKGRFTISRDNAKKTVYVQMNRLKAEDTAVYSCNAPRGGRNTVYYWGQGTQVTVSS”, the “polyreactivity (PSR sort gate)” value was “high polyreactivity”.

“QVQLVESGGGLVQAGGSHRLSCAASGRIFTYNAMGWYRQAPGKERELVAVITSGGSTYYADSVKGRFTISRDNAKNTVYLQMNSLKPEDTAVYYCNAVYFRYRYNYWGQGTQVTVSS”: the “polyreactivity (PSR sort gate)” value is “high polyreactivity”.

As for “QVQLVESGGGLVQAGGSHRLSCAASGRIFTYYAMGWYRQAPGKQREFVAAITYRGGRTYYADSVKGRFTISRDNAKNTVYLQLNSLNPEDTAVYYCNVAPYGYWPRYYPWRELDYWGQGTQVTVSS”, the “polyreactivity (PSR sort gate)” value was “high polyreactivity”.

For the sequence “QVQLVESGGGLVQAGGSHRLSCAASGRILYGYAMGWYRQAPGQERELVASITWSGGSTYADSVKGRFTISRDNAKNTVYLQMKSLKPEDTAVYYCATRRGPKWQWLTYGYWGLGTQVTVSS”, the “polyreactivity (PSR sort gate)” value is recorded as “low polyreactivity”.

Take “QVQLVESGGGLVQAGGSHRLSCAASGRTFGYNAMGWYRQAPGKERELVAAISRSGGRTYYADSVKGRFTISRDNAKNTVYLHMNRLKPEDTAVYYCAAESYHRGYDYWGQGTQVTVSS”: the “polyreactivity (PSR sort gate)” value was “high polyreactivity”.

“QVQLVESGGGLVQAGGSHRLSCAASGRTFRPYAMGWYRQAPGKERELVAAITGGTRKYYADSVKGRFTISRDNAKNSVYLQMNSLKPEVTAVYSCAKGDFFSKHDYRGQGTQVTVSS”: the “polyreactivity (PSR sort gate)” value is recorded as “low polyreactivity”.

“QVQLVESGGGLVQAGGSHRLSCAASGRTFSTYSMGWYRQAPGKERELVAAISSGGGRTYYADSVKGRFTISRDIAKNTVYLQINSLKPEDTAVYDGAADRYFRSRRSYEYWGQGTQVTVSS”: the “polyreactivity (PSR sort gate)” value was “low polyreactivity”.

Consider “QVQLVESGGGLVQAGGSHRLSCAASGRTFVFYAMGWYRPAPGKERELVAAISRSGGSTYYADSVKGRFTISRDNAKNTVFLQMNSLKPEDTAVSYCNARYTGSGGYWGQGTQVTVSS”, for which the “polyreactivity (PSR sort gate)” value is recorded as “high polyreactivity”.

On to “QVQLVESGGGLVQAGGSHRLSCAASGRTFYAYAMGWYRQAPGKERELVAANRYSGGRTYYADSVKGRFTISRDNAKNTVYLQMNSLKPEDTGVYYCAREWSRGSYVDYDYWGQGTQVTVSS”, for which the “polyreactivity (PSR sort gate)” value is recorded as “high polyreactivity”.

For the sequence “QVQLVESGGGLVQAGGSHRLSCAASGRTFYFYTMGWYRPAPGKESELVATIRWSAGSTYYADSVKGRFTISRDNAKNTVYLQMNSLKPEDTAVYYCNADPYVYSSWEYGYWGLGTQVTVSS”, the “polyreactivity (PSR sort gate)” value was “high polyreactivity”.

Take “QVQLVESGGGLVQAGGSHRLSCAASGSIFYDNAMGWYRQAPGKERELVAVITVSGDSTYYADSVKGRFTISRDNAKNTVYLQMNSLKPEDTAVYYCNTDAISGSHFWRYITFGYLDDYWGQGTQVTVSS”: the “polyreactivity (PSR sort gate)” value was “low polyreactivity”.
